Assay results as given in PMC6344859, “Structural basis for acceptor RNA substrate selectivity of the 3′ terminal uridylyl transferase Tailor”.

Legend:
Tailor (DmTailor180-560) [1] = target: T1, Tailor (DmTailor180-560) (Drosophila melanogaster, UniProt Q9VI58 180-560); assay: crystal structure (2.0 A); two Mg2+; Crystallization conditions not in material; protein stock 20 mM HEPES pH 7.0, 150 mM KCl, 2 mM MgCl2, 1 mM DTT; conditions: protein: recombinant; tags: none after TEV cleavage (His6-MBP removed); single strand
Tailor (DmTailor180-560) [2] = target: T1, Tailor (DmTailor180-560); assay: crystal structure (1.85 A); two Mg2+; Crystallization conditions not in material; protein stock 20 mM HEPES pH 7.0, 150 mM KCl, 2 mM MgCl2, 1 mM DTT; conditions: protein: recombinant; tags: none after TEV cleavage (His6-MBP removed); single strand

T1 sequence (Q9VI58 180-560): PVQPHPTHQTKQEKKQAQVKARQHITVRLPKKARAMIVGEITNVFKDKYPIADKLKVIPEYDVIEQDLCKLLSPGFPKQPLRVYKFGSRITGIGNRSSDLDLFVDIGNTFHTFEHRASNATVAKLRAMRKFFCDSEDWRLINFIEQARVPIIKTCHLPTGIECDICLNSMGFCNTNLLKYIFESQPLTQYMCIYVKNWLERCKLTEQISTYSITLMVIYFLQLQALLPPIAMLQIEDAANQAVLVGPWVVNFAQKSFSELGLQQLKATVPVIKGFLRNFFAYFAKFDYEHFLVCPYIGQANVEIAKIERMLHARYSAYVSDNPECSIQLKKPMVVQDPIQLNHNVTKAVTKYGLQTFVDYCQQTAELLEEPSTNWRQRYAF

Row | Binder | binding result (Tailor (DmTailor180-560) [1]) | binding result (Tailor (DmTailor180-560) [2])
1 | UUUUUU (ssRNA) [U6] | binds | –
2 | CACAGU (ssRNA) | – | binds
